Article PMC8567202, “Phosphoinositide-binding activity of Smad2 is essential for its function in TGF-β signaling” (The Journal of Biological Chemistry, 2021)
Residue numbers refer to the chain shown, from its start. Names may count otherwise.

B1: Smad2-W422A: W422A mutant of full-length Smad2; specific PI(4,5)P2 binding-compromised (protein)
chain: MSSILPFTPPVVKRLLGWKKSAGGSGGAGGGEQNGQEEKWCEKAVKSLVKKLKKTGRLDELEKAITTQNCNTKCVTIPSTCSEIWGLSTANTVDQWDTTGLYSFSEQTRSLDGRLQVSHRKGLPHVIYCRLWRWPDLHSHHELKAIENCEYAFNLKKDEVCVNPYHYQRVETPVLPPVLVPRHTEILTELPPLDDYTHSIPENTNFPAGIEPQSNYIPETPPPGYISEDGETSDQQLNQSMDTGSPAELSPTTLSPVNHSLDLQPVTYSEPAFWCSIAYYELNQRVGETFHASQPSLTVDGFTDPSNSERFCLGLLSNVNRNATVEMTRRHIGRGVRLYYIGGEVFAECLSDSAIFVQSPNCNQRYGWHPATVCKIPPGCNLKIFNNQEFAALLAQSVNQGFEAVYQLTRMCTIRMSFVKGAGAEYRRQTVTSTPCWIELHLNGPLQWLDKVLTQMGSPSVRCSSMS
modifications: left off: His6, N-terminal, state not stated
B2: Smad2-Y426A: Y426A mutant of full-length Smad2; specific PI(4,5)P2 binding-compromised (protein)
chain: B1 chain with A422W, Y426A
modifications: left off: His6, N-terminal, state not stated
B3: Smad2- R427A/R428A: double mutant of full-length Smad2; PI(4,5)P2 and TβRI binding-compromised (protein)
chain: B1 chain with A422W, R427A, R428A
modifications: left off: His6, N-terminal, state not stated
B4: Smad2-K420A: K420A mutant of full-length Smad2; predominantly TβRI binding-compromised (protein)
chain: B1 chain with K420A, A422W
modifications: left off: His6, N-terminal, state not stated
B5: Smad2-E425K: charge-reversal mutant of full-length Smad2; PI(4,5)P2 and TβRI binding-enhanced (protein)
chain: B1 chain with A422W, E425K
modifications: left off: His6, N-terminal, state not stated
B6: EGFP-Smad2 WT: mouse EGFP-Smad2 wild type transfected into HeLa cells (protein, UniProt Q62432 2-467, looked up)
Mothers against …: SSILPFTPPVVKRLLGWKKSAGGSGGAGGGEQNGQEEKWCEKAVKSLVKKLKKTGRLDELEKAITTQNCNTKCVTIPSTCSEIWGLSTANTVDQWDTTGLYSFSEQTRSLDGRLQVSHRKGLPHVIYCRLWRWPDLHSHHELKAIENCEYAFNLKKDEVCVNPYHYQRVETPVLPPVLVPRHTEILTELPPLDDYTHSIPENTNFPAGIEPQSNYIPETPPPGYISEDGETSDQQLNQSMDTGSPAELSPTTLSPVNHSLDLQPVTYSEPAFWCSIAYYELNQRVGETFHASQPSLTVDGFTDPSNSERFCLGLLSNVNRNATVEMTRRHIGRGVRLYYIGGEVFAECLSDSAIFVQSPNCNQRYGWHPATVCKIPPGCNLKIFNNQEFAALLAQSVNQGFEAVYQLTRMCTIRMSFVKGWGAEYRRQTVTSTPCWIELHLNGPLQWLDKVLTQMGSPSVRCSSMS
modifications: EGFP fusion
notes: mouse EGFP-Smad2 wild type transfected into HeLa cells

What follows are molecules tested on TβRI (assay: Dual color single-molecule tracking, TβRI and EGFP-Smad2). Details: HeLa cells with endogenous Smad2 suppressed, 10 ng/ml TGF-β.
Format: cell-based
Description: Figure 4 Quantitative imaging analyses of spatiotemporal dynamics of Smad2.A, TIRF images of mouse EGFP-Smad2-WT transfected into HeLa cells whose endogenous Smad2 is suppressed by siRNA. Images were taken before and 5 min after TGF-β stimulation (10 ng/ml) with and without PI(4,5)P2 depletion. A pseudo-coloring scheme was used with orange and blue representing the highest and the lowest intensity, respectively. B, kinetics of TGF-β stimulated (10 ng/ml) PM localization of EGFP-Smad2-WT (blue), -K420A (green), and -W422A (orange) transfected into HeLa cells the endogenous Smad2 of which was suppressed by siRNA. For EGFP-Smad2-WT, the effect of PI(4,5)P2 depletion (black) and TβRI inhibition by SB-431542 (10 μM for 36 h) (red) were measured. Data points indicate average ±S.D. (n = 10 cells). C, spatially resolved PM PI(4,5)P2 concentration ([PI(4,5)P2]) profiles calculated from two-channel cross-sectional images of HeLa cells (before and 5 min after 10 ng/ml TGF-β stimulation and after PI(4,5)P2 depletion). Each cell is a representative of more than ten cells analyzed. Spatially averaged [PI(4,5)P2] values for each cell type are shown. The z-axis scale indicates [PI(4,5)P2] in mol%. A pseudo-coloring scheme with red and blue representing the highest (1.5 mol%) and the lowest (0 mol%) concentration, respectively, is used to illustrate the spatial [PI(4,5)P2] heterogeneity. Scale bars indicate 10 μm. D, dual color single-molecule tracking of EGFP-PLCδ-PH and SNAP-TMR-labeled TβRI at the PM of HeLa cells. Time courses of the half-life of colocalization for SNAP-TMR-labeled TβRI and EGFP-PLCδ-PH after 10 ng/ml TGF-β stimulation were determined with (orange) and without (blue) PI(4,5)P2 depletion. Data points indicate average ±S.D. (n = 10 cells). E, time courses of the half-life of colocalization for SNAP-TMR-labeled TβRI and EGFP-Smad2 determined by dual color single-molecule tracking analysis. Colocalization of TβRI with EGFP-Smad2-WT (blue), -K420A (green), -W422A (orange), E425K (red), Y426A (cyan), and -R427A/R428A (black) transfected into HeLa cells whose endogenous Smad2 was suppressed by siRNA is shown. For EGFP-Smad2-WT, the effect of PI(4,5)P2 depletion (purple) was measured. Data points indicate average ±S.D. (n = 10 cells). […] TEXT PRINTED IN THE PICTURE: (C) PI(4,5)P2: [PI(4,5)P2] = 1.05 ± 0.20 mol% (HeLa unstimulated); [PI(4,5)P2] = 1.00 ± 0.40 mol% (HeLa 5 min after TGFβ); [PI(4,5)P2] = 0.16 ± 0.08 mol% (HeLa After PI(4,5)P2 depletion) DOUBTS OF THE COPYIST ABOUT THIS PICTURE: Panel C: the printed values are measured membrane concentrations of PI(4,5)P2 in HeLa cells under three conditions, not an activity or property of a compound; it is uncertain whether they count as a result for a substance
Single-molecule imaging was performed using a custom-built total internal reflection fluorescence microscope as described previously. HeLa cells were plated on the 8-well chambered coverglass (Lab-Tek, Thermo Fisher Scientific) at the density of 1 × 10^5 for 24 h, EGFP-Smad2 or mutants and SNAP-tagged TβRI were cotransfected into cells using the jetPRIME system (Polyplus-transfection) according to the manufacturer's protocols. The transfected HeLa cells were serum starved for 16 h and subsequently labeled with SNAP-Cell tetramethylrhodamine (TMR)-Star (New England Biolabs). Labeled cells were washed to remove the free dye, stimulated with 10 ng/ml TGF-β, the two protein molecules were simultaneously tracked and analyzed as described. The images were spatially corrected following the algorithm described previously ([39]). All particle tracking, data analysis, and image processing were carried out with in-house programs written in MATLAB. Colocalization analysis of two molecules was performed with a fixed threshold criterion (i.e., <400 nm) for colocalization ([39]). The same size of PM surface was analyzed for each data. […]

Row | Molecule | dynamic colocalization / dwell time with TβRI after TGF-β stimulation
1 | B1 | much reduced TGFβ-stimulated dynamic colocalization with TβRI
2 | B2 | much reduced TGFβ-stimulated dynamic colocalization with TβRI
3 | B3 | low response to TGFβ stimulation
4 | B4 | little response to TGFβ stimulation
5 | B5 | stronger interaction with TβRI in terms of both amplitude and duration

Same assay, conditions: HeLa cells with endogenous Smad2 suppressed, 10 ng/ml TGF-β, n = 10 cells

Row | Molecule | time of peak colocalization with TMR-SNAP-TβRI after TGF-β stimulation
6 | B6 | 5 min
